This is an account of results in article PMC10359615.

This series has as its target APE1Dead (catalytically dead APE1) D210N;E96Q (human) (UniProt P27695). Description: EMSA. Conditions: EMSA: 50 mM Tris pH 8, 1 mM EDTA, 0.2 mg/ml BSA, 1 mM DTT, 5% sucrose, room temperature, 5 nM DNA, FRET: 20 mM HEPES pH 7.5, 150 mM KCl, 5 mM MgCl2, 5 mM ….

APE1Dead (catalytically dead APE1) D210N;E96Q (human), sequence (P27695 whole entry E96Q/D210N): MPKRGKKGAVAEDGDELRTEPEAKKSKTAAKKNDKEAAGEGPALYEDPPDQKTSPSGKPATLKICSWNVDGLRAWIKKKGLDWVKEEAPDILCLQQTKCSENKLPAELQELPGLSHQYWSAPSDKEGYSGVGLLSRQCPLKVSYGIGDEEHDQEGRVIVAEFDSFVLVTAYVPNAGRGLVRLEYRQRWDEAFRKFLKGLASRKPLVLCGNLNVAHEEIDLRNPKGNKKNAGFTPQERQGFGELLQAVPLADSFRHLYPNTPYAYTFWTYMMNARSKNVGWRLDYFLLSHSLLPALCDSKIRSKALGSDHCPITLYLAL

For the setting “1 mM EDTA, Kd,app, N11 = tetrahydrofuran abasic analog (THF)”, “GCTGATGCGCNCGACGGATCC [abasic ssDNA 21-mer]” yielded a Kd of 22 nM. In the case of “CTCAACACTTAACTA / TGGATGATGACTCTTCTGCGTTCGCTGATGCGCCGACGGTAGTTAAGTGTTGAG [Rec-PTJ, abasic site 7 nt from junction (FAM)]”, the Kd (THF abasic analog 7 nt from the 3' ds-ss junction) was found to be 0.7 nM. For the setting “THF abasic analog directly next to the 3' ds-ss junction”, “CTCAACACTTAACTACCGTCG / TGGATGATGACTCTTCTGCGTTCGCTGATGCGCCGACGGTAGTTAAGTGTTGAG [PTJ, abasic site at junction (FAM)]” returned a Kd of 1.2 nM. For abasic dsDNA, the Kd (1 mM EDTA, Kd,app, THF abasic analog) stood at 0.4 nM.
